From paper PMC4383860, “Crystal structure of human persulfide dioxygenase: structural basis of ethylmalonic encephalopathy” (Human Molecular Genetics, 2015) come the findings set out here.

Data set [1] deals with the molecule itself. Nature of the data set: SEC-MALS; printed as MALS (multi-angle laser light scattering) of hETHE1 after purification, two peaks; self-association.
Data set [2] concerns the molecule itself. Nature of the data set: native MS + SEC-MALS; dimer to monomer ratio told for both methods together; self-association, dimer. On the technique in general: Size exclusion chromatography separates by hydrodynamic size, large species first.
Data set [3] deals with the molecule itself. Nature of the data set: native MS; non-denaturing electrospray soft-ionization MS; 15 µM hETHE1 in 15 mM ammonium acetate buffer (pH 7.5); cone voltage 80 V; self-association, dimer.

B1: human ethylmalonic encephalopathy protein 1 (hETHE1), lacking its 20 residue N-terminal mitochondrial targeting sequence (enzyme, UniProt O95571 21-254, looked up)
chain: APILLRQMFEPVSCTFTYLLGDRESREAVLIDPVLETAPRDAQLIKELGLRLLYAVNTHCHADHITGSGLLRSLLPGCQSVISRLSGAQADLHIEDGDSIRFGRFALETRASPGHTPGCVTFVLNDHSMAFTGDALLIRGCGRTDFQQGCAKTLYHSVHEKIFTLPGDCLIYPAHDYHGFTVSTVEEERTLNPRLTLSCEEFVKIMGNLNLPKPQQIDFAVPANMRCGVQTPTA
modifications: Cys247 refined as cysteinyl sulfinic acid (CSD247) in the crystal; +30 Da seen only in the dimer by non-denaturing mass spectrometry
notes: the start at residue 21 is worked out from that statement; Printed masses: monomer 26 116 Da, dimer 52 232 Da; also called human persulfide dioxygenase; sulphur dioxygenase; not shown: His6, N-terminal, cleaved
With B1, the stoichiometry N (commonly the number of molecules, sites or subunits per partner or assembly) in data set [1] is 4; in data set [3], 2. For the same protein, the “dimer to monomer ratio” value in data set [2] is roughly 10.
